# How the values were obtained:
# Fer (mouse) = assay: phosphorylation enrichment, bacterial display (enrichment ratio); higher = better substrate or ligand; peptides without Tyr show the background
# FGFR1 = FGFR1 (UniProt P11362); assay: as above
# Fyn = Fyn (UniProt P06241); assay: as above
# Jak2 = Jak2 (UniProt O60674); assay: as above
# AncSZ = assay: as above
# EPHB1 = EPHB1 (UniProt P54762); assay: as above
# EPHB2 = EPHB2 (UniProt P29323); assay: as above
# FGFR3 = FGFR3 (UniProt P22607); assay: as above
# Hck = Hck (UniProt P08631); assay: as above
# Fes = Fes (UniProt P07332); assay: as above
# MERTK = MERTK (UniProt Q12866); assay: as above
# c-Src = assay: as above
# c-Abl (mouse) = assay: as above
# SHP2-C SH2 = assay: SH2 binding enrichment of the phosphorylated peptide, bacterial display (enrichment ratio); higher = better substrate or ligand; peptides without Tyr show the background
# Grb2 SH2 = Grb2 SH2 (UniProt P62993); assay: as above
# c-Src SH2 = assay: as above
# 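For SH2 binding enrichment of the phosphorylated peptide, bacterial display in this document: peptide library displayed on the E. coli surface as eCPX fusions, selected cells deep-sequenced, score is each peptide's frequency after selection divided by its frequency in the input.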
# 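For phosphorylation enrichment, bacterial display in this document: 11-residue human phosphosite peptides and single-mutation variants displayed on the E. coli surface, counted by deep sequencing, each peptide's frequency after selection divided by its frequency in the unselected input library; frequency after pTyr selection over input frequency; kinase dosed for 20-30% of maximal phosphorylation in three min.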
# Sequence of EPHB1 (P54762 whole entry, looked up): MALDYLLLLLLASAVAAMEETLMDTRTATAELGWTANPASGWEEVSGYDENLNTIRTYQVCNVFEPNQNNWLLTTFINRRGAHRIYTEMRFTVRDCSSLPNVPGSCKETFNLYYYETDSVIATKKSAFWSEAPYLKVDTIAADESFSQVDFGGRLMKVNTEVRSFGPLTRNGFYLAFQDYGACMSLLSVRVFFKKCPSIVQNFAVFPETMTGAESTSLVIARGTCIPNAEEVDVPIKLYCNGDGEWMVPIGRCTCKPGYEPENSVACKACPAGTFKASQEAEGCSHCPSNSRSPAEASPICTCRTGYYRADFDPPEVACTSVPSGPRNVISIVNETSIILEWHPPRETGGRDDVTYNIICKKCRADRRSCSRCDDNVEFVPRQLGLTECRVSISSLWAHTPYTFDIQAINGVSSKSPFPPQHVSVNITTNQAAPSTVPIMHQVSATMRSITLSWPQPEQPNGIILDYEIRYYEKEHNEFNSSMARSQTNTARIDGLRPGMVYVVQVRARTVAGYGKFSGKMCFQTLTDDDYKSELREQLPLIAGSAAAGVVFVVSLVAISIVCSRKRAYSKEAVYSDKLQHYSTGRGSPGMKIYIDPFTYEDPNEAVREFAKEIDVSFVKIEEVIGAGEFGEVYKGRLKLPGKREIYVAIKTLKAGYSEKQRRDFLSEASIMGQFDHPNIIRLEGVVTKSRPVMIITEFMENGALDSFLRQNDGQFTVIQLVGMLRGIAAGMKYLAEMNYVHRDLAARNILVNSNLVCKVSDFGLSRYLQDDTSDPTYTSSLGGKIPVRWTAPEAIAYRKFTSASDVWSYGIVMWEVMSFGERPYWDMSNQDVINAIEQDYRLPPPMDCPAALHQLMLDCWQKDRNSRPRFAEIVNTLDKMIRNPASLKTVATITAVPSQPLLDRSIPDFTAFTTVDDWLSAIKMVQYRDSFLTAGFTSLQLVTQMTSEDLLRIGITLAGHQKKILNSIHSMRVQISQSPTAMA
# Sequence of MERTK (Q12866 whole entry, looked up): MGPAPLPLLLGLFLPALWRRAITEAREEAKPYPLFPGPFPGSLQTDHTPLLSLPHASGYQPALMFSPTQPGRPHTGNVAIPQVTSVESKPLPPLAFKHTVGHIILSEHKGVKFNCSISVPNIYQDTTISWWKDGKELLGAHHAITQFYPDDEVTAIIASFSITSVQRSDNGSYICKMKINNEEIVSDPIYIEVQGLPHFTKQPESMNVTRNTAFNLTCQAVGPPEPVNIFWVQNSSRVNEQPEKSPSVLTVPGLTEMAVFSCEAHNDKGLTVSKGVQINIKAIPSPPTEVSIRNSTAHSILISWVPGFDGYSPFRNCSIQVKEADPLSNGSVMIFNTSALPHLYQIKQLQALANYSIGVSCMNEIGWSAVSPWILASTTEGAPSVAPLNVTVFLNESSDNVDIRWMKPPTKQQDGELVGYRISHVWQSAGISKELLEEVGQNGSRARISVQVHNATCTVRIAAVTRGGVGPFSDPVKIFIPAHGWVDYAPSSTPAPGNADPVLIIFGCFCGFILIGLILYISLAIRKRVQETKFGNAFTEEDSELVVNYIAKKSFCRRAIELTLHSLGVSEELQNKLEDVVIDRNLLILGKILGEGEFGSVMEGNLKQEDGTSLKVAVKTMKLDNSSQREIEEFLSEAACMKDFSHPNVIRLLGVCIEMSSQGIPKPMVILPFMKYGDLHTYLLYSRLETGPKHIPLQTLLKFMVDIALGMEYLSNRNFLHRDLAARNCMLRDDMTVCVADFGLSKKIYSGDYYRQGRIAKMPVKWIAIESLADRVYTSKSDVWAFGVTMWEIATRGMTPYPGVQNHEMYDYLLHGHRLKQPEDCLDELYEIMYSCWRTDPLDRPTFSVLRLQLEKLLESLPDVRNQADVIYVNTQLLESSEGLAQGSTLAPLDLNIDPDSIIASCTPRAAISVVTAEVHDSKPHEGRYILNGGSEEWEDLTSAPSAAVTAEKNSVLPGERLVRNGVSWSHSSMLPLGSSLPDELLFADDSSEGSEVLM
# Sequence of EPHB2 (P29323 whole entry, looked up): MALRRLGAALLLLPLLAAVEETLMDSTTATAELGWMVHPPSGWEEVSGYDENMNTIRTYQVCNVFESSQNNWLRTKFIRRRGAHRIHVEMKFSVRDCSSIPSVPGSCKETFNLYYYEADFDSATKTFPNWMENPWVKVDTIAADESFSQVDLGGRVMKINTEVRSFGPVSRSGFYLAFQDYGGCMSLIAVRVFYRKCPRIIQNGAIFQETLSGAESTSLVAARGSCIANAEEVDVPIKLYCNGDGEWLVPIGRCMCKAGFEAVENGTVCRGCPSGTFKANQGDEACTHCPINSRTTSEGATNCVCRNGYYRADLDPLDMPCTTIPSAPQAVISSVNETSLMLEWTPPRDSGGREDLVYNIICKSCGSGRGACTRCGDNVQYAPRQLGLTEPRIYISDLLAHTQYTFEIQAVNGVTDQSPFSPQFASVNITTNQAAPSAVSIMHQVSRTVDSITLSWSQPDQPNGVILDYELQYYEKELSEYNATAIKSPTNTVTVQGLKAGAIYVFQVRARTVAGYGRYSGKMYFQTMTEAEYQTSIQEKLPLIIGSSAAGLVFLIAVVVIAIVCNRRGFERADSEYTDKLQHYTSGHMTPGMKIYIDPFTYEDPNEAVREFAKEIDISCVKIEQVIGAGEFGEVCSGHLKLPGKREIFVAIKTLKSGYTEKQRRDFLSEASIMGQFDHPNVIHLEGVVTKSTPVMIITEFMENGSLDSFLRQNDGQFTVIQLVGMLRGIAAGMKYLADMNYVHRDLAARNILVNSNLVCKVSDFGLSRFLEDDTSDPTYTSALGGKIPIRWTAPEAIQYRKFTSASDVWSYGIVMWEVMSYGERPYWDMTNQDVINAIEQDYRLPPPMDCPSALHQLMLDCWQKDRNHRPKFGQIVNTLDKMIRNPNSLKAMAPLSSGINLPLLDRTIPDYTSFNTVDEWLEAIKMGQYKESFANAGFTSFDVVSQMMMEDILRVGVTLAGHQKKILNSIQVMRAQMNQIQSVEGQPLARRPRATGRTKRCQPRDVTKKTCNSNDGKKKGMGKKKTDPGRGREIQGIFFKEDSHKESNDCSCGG
# Sequence of Fyn (P06241 whole entry, looked up): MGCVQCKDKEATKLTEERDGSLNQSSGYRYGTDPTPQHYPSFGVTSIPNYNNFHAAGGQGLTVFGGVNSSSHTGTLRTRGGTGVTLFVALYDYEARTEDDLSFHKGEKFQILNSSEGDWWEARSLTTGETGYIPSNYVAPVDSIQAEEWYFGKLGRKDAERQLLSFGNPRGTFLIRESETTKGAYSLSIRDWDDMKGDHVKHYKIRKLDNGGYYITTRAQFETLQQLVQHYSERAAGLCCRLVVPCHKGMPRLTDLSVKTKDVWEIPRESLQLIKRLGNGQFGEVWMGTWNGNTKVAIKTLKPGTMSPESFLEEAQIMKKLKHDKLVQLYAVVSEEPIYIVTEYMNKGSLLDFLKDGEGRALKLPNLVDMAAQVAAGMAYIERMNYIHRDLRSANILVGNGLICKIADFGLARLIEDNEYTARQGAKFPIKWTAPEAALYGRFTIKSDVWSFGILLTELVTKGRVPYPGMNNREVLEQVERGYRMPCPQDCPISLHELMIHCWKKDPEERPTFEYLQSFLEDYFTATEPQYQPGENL
# Sequence of Fes (P07332 whole entry, looked up): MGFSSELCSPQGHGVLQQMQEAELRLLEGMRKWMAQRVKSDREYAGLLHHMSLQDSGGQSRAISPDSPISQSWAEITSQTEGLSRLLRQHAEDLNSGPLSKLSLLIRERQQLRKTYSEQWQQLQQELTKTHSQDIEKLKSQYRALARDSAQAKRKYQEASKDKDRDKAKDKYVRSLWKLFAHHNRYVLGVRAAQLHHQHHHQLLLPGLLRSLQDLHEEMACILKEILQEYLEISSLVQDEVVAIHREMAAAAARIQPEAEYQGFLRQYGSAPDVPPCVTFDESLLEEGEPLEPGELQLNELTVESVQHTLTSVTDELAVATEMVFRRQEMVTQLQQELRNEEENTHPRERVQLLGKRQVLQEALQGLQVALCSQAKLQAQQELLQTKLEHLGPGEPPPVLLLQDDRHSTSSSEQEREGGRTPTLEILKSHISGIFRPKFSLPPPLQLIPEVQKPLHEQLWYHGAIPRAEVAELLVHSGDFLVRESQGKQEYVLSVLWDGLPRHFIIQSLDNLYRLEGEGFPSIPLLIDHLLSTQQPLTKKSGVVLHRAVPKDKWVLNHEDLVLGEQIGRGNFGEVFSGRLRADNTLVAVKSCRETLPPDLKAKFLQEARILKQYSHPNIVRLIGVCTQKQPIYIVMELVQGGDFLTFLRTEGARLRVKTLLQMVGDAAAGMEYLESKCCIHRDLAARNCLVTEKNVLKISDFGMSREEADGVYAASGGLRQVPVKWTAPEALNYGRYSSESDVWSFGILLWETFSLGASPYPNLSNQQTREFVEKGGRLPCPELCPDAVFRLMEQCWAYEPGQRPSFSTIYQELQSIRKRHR
# Sequence of Hck (P08631 whole entry, looked up): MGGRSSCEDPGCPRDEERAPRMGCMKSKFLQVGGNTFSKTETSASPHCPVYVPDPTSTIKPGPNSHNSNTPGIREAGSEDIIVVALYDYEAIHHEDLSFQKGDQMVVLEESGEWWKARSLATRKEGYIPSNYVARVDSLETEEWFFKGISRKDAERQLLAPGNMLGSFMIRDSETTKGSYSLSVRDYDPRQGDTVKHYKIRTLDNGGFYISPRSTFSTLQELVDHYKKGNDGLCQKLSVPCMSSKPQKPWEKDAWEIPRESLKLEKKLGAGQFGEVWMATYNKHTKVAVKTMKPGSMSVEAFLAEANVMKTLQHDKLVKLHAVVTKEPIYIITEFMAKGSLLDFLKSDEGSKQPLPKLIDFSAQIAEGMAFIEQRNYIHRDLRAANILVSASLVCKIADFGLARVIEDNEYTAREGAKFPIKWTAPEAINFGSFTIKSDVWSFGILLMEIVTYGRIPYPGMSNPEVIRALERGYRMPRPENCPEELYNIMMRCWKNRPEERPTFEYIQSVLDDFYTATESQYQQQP
Sequence,SH2 binding enrichment (SHP2-C SH2),SH2 binding enrichment (Grb2 SH2),SH2 binding enrichment (c-Src SH2),phosphorylation enrichment (Fer (mouse)),phosphorylation enrichment (FGFR1),phosphorylation enrichment (Fyn),phosphorylation enrichment (Jak2),phosphorylation enrichment (AncSZ),phosphorylation enrichment (EPHB1),phosphorylation enrichment (EPHB2),phosphorylation enrichment (FGFR3),phosphorylation enrichment (Hck),phosphorylation enrichment (Fes),phosphorylation enrichment (MERTK),phosphorylation enrichment (c-Src),phosphorylation enrichment (c-Abl (mouse))
YDCKWYIPLTD [BCR_Y756],0.707,0.863,0.597,0.502,0.839,0.483,1.68,1.47,0.689,0.711,0.805,0.571,1.41,1.51,0.69,0.914
YDGKEYDPVEA [MAPRE2_Y167],0.502,0.912,0.604,0.621,0.535,0.556,1.22,1.21,0.772,0.637,0.836,0.567,1.42,0.497,0.645,0.935
YETSHYLASPD [CTNND2_Y1217_P1218L],0.675,1.11,1.1,0.685,0.649,0.523,0.809,1.09,0.59,0.767,0.633,0.554,0.961,0.784,0.529,0.821
YGMQLYQKYMH [GRB14_Y347_N349K],0.64,0.824,0.548,2.09,0.572,1.31,0.561,0.844,1.15,2.42,0.581,2.08,0.694,1.92,2.29,0.648

# Second part, led by results:
SH2 binding enrichment (SHP2-C SH2),SH2 binding enrichment (Grb2 SH2),SH2 binding enrichment (c-Src SH2),Sequence,phosphorylation enrichment (Fer (mouse)),phosphorylation enrichment (FGFR1),phosphorylation enrichment (Fyn),phosphorylation enrichment (Jak2),phosphorylation enrichment (AncSZ),phosphorylation enrichment (EPHB1),phosphorylation enrichment (EPHB2),phosphorylation enrichment (FGFR3),phosphorylation enrichment (Hck),phosphorylation enrichment (Fes),phosphorylation enrichment (MERTK),phosphorylation enrichment (c-Src),phosphorylation enrichment (c-Abl (mouse))
0.531,0.907,0.595,YDDGKYVYVVT [RPS6KA3_Y488],0.811,1.63,1.43,1.34,1.25,0.724,0.669,1.38,1.04,1.27,0.941,1.3,0.768
0.623,0.742,0.598,YDGGCYEQLFV [MC4R_Y41_S36Y],11.4,1.18,2.04,1.21,2.51,1.24,0.968,1.45,3.08,1.38,1.17,2.71,1.01
